The data set can be described thus: soluble on expression in E. coli; label from the status in PepcDB or PDB records.
For “MSVDKSPVYEVKAVPVEKVLANDYNPNVVAPPEMKLLELSIWEDGFTMPCVCYYNKEEDNYILVDGYHRYTVLKTSKRIYKRENGLLPIVVIDKDLSNRMSSTIRHNRARGMHNIELMCNIVAELDRAGMSDQWIMKNIGMDRDELLRLKQISGLADLFANREFSIPDEVAPTETERKTL”, the “soluble on expression in E. coli” value is “not soluble”.

“MGSDKIHHHHHHMATENALYEILTEKIKQDTLVLPTLPEVALKVRSAADDPDINLNQMSDIIAHDPALSLGMLKVANNALMGRSIKVETVPQAVTRIGLIQIKSIATAMAIEQVFVSNNDVVAMYMNKAWVKTIDIASVAISLMNIYLKENKHTSLSLDTITLASLIHNIGVLPILTEAENHPDVFANPTFLQQAIIKLSGRVGGAITRKWGFSEEFTLLAESWSDLTILPSEVHYLDFIRAGAIYHNVFKNESTKVALLNNYTKKGILPEVDYMDSDEFKGMCEDVRAMFI”: the “soluble on expression in E. coli” value is recorded as “not soluble”.

“MIKGSCLCGDIRYTTEAAPQGASMCHCGQCRRQSGGVWSSAFVPEADLTITGPVSWFAASDTAKRGFCARCGSFLFWKANDEDTISFSLGSVDGPTGLRLTKHIFVAGKGDYYDIADDAPHKD”: the “soluble on expression in E. coli” value was “not soluble”.

Turning to “MSLRPLAIIGPTGAGKSQLALDVAARLGARVSVEIVNADAMQLYRGMDIGTAKLPVSERRGIPHHQLDVLDVTETATVARYQRAAAADIEAIAARGAVPVVVGGSMLYVQSLLDDWSFPATDPSVRARWERRLAEVGVDRLHAELARRDPAAAAAILPTDARRTVRALEVVELTGQPFAASAPRIGAPRWDTVIVGLDCQTTILDERLARRTDLMFDQGLVEEVRTLLRNGLREGVTASRALGYAQVIAALDAGAGADMMRAAREQTYLGTRRYVRRQRSWFRRDHRVHWLDAGVASSPDRARLVDDAVRLWRHVTEGHHHHHH”, the “soluble on expression in E. coli” value is on record as “soluble”.

“METCDLLAFGAHPDDVEIGMGGTIAKYVRRGYRIVICDLTQAELSSNGTVDERQREAAEAARRLGVSERFNLGLPDRGLYVEEEAIRQIAAVIRRCRPRLVFAPYWEDRHPDHGRCARLVEEAVFSAGIRRYGAGELGDAHRVRAVYYYMINAFCRPHFLIDISETIDDKLDSLRAYESQFQKRPGSVDTPLTNGYIEMIESRERWFGQQIGAAYAEGFLTKTPIHLSNLFEEER”: the “soluble on expression in E. coli” value is given as “not soluble”.

As to “MFKDFFNRTKKKKYLTVQDSKNNDVPAGIMTKCPKCKKIMYTKELAENLNVCFNCDHHIALTAYKRIEAISDEGSFTEFDKGMTSANPLDFPSYLEKIEKDQQKTGLKEAVVTGTAQLDGMKFGVAVMDSRFRMGSMGSVIGEKICRIIDYCTENRLPFILFSASGGARMQEGIISLMQMGKTSVSLKRHSDAGLLYISYLTHPTTGGVSASFASVGDINLSEPKALIGFAGRRVIEQTINEKLPDDFQTAEFLLEHGQLDKVVHRNNMRQTLSEILKIHQEVTK”, the “soluble on expression in E. coli” value was “not soluble”.

On to “MPQFLKGVTLENREGDELPAEEHLKGKIIGLYFSASWCPPCRAFTPKLKEFFEEIKKTHPEFEIIFVSRDRNSSDLVTYFKEHQGEWTYIPFGSDKIMSLMQKYEVKTIPAMRIVNDQGEVIVQDARTEIQNKGENVEGLWAEWMALIK”, for which the “soluble on expression in E. coli” value is recorded as “not soluble”.

For the sequence “MGSDKIHHHHHHMTQKESIRLFEERKVRAIWDDEQEEWYFSIVDVISILTDSPNPRKYWSVLKTRLKREGSELTTNCSQLKMQAADGKKYLTDVANTEQLFRLIQSVPSPKAEPFKLWIAQVAKERLDQMQDPELSIEQAMADYKRLGYSDNWINQRLKSIEIRKDLTDEWKKRGLEEGLHFATLTDIIYKSWSDMTSKEYKRFKGLRKENLRDNMTNKELVLNMLAELSTKEISEASEPDTFSEHINVAQQGGEVARNARLELEAKTGKSVISPLNAQKIISLKKGENERDV”, the “soluble on expression in E. coli” value is “not soluble”.

On to “MVSDISNSRILRRRSSTFTDPTNLLAVHELRSRILQDPAISVKHLSDDVHRIRHEDWWLDRFLGSVNYDVDIAYAIMLECLKWRRNFEVDRISLLSLKPLLDNQLMYLHGKDLQNRHMLWIMMNKYKNGDDGFEKLFTFWIERHYMEYKGCQPLTVFIDMTGTGLKNMSFDAMKFIIHSSKYYYPNSIESILIFENPAILNASWKVIGSWLESSAASQRHDLLTFVTKLSVTHYVPKSHLLEHQGGTDTFKFTMDELAKCLPPPPPPKPSPKLLQQRMHSIDDSTNNNNVKFDEESTTKRAPSLSRRSSRGPKSRKSHIPPSLRPLIENRVNAPSDDWSSNDFVSITPRDELRLEKLDGENDLLDVVLVKNQSSDTPIMFKFKTTSPEKFRVRPSSGIVQPGTTEIIRVYLQYGESTDTRGTKKSFCFLQWNRHQQTLKASLNSSNQQATRQNSNSNVDCQKI”, for which the “soluble on expression in E. coli” value is “not soluble”.

“GPGSMSKSRRDVNKVQIGYHRAENTETVSSPHTYAYSSGKSAPSTTKPDRPTVSNIRIASAVAGLPPSRFAANASVKREKNDEESESPTAAASSVSSSLLHGAASEARTTVDGFPWSTRRVERMSFEMQNVSPPIANLLRRVLTTEVPTLAFDRVLIEENDSPVLDELLSHRLGLVPVAGPVMKMHYITESNQASFSNLDPSRVLLFELDATGAKDAAVTPVYSGQLQWVPLPGQDKTAGAVAVACQAGREECAGAAGATDHSADEDDDAVFLVHPDILLTKLGPGQRIKLKAIAVKGFGAVHAKWSPVSACYYEMKTSVELCERLTGSAAEALIKSCPAGVFGYEGGQRGAAATVVAPEKCTLCRECLRSEDKGAEAAANKGDRVRVQKDKTHVLFHIESVGQLHPAQILRFGLRLFAERCRALAEMVQSTEVHVVDASAKSLEL”: the “soluble on expression in E. coli” value is “not soluble”.

On to “MSISGIGSYAASMLTPSRGSAGTSASAAATAADNTPATKSGSGGVQKTDFTQMTHKQLFDWVNSKIASGEMSFDESSTFISMTVSMPVDGSSMAPDDKQPVNFMQSVRDGMERALQTNDSDLFARLQTALHTMQRSQGEVRGVNMTV”, for which the “soluble on expression in E. coli” value was “not soluble”.

As for “MILGPDGKPIKKPETSEIARVLHTFSAFMKSLPNPDIILKKTGKTAEIFEEMKTDAHVWAELTKRKSGVLSKDWDILPASNDRRDLEIAAFVKETFERLNFDQDMRTKTCGKCSMPCSRAGTCTN”, the “soluble on expression in E. coli” value is listed as “not soluble”.

For “MGSDKIHHHHHHMKDNFFGREYDIAPAGGETGQAFVATHEDEKFFLKRNSSPFLAALSVENIVPKLVWTRRVENGDVITAQKWVNCHILTREEMVGPRVAKLLAKIHHSENLRHMLEKIENCYFSAHQLLARLKAEMKAKNEANNVMQTAIEYLERNITAVEKADYVVCHGDVNHNNWIISEENELFLVDWDGAMLADAANDLGMILYQYIPREGWDEWLSNYGTTLTSELHRKLKWYTLCQTVMQLTTNQSEEAYERAKQIFQNAIEDDEV”, the “soluble on expression in E. coli” value was “not soluble”.

On to “MAHHHHHHMDTHALLALAQSAVDAGNVKAACEFYEVALAQSPNNDEVLEAYAEVMIHYAQDIPRAQQMLRHAIDINPNQGYVKYLNLAQLCEAEEALKCYEKAYEIASLMLHGCRKKKMKKTLQETMATMCCAVAELYLTDLCFAENAEQQCEQAVNRALELNSDLVEPHQLQASLRLSQCRPDEALQSLRRAVDATHRLGEEHQPTYESKIELGRLLMQVDPAEAFQFLLEVLQYGDNNPYVWFLLGESARMRRRYADAARLLRRARVMLVVSGGDATALSEVDAAINVLVQEMGGPEEAAQVKDLDHPYPLELLEAEDDEGAEEDGEDDLEEPEREPCDDEDDA”, for which the “soluble on expression in E. coli” value is reported as “not soluble”.

As to “HRPLNPAMVAFSNDPLLNDLALNSSYSLLFAVNNMKSEKSAEQFYGKMDNQKMLDLVRASSTKIDFDPTLLPTMNSNPATYQGKRKNLVILLQESLGAQFVGSLGGLPLTPNLDELMQEGWQFTQMYATGTRSVRGIEAVTTGFPPSPSRAVVKLSKSQTGFFTIADLLKEQGYHTQFIYGGEANFDNMKTFFFGNGFDQIVEEKNYTNPGFVGSWGVSDEDLYNKADEEFERLSKGDKPFFSLVFTSSNHSPYEYPEGKIEQYDSEHMTRNNAVKYSDYALGTFFDKAKKSSYWDDTIFIVIADHDARVFGANLVPVKHFHIPALIIGKDIQPRKDDRIANNIDMPPTLLSLIGVDAKTPMIGRDLTKPLAREDERAMMQYDKNFGYLTRDNLVVLSPGEKVSTMEYDFESQTMKPLEVDESVIDRAKANALFASKAYQNNWYSSKRTN”, the “soluble on expression in E. coli” value is on record as “soluble”.

As to “MLPLEPYLTQTSAVPQMSHFMCHSPTHKPQGLLPWAPFHQASVSLYPISPWPSESVCPPTCPGGASCWFPAGNAWDRVELGFLGFGAGGVSIAVPGFPLSCGQGCCAGGWLGHGARFPAKLRAFPQVIRRGWLTINNISLMKGGSKEYWFVLTAESLSWYKDEEEKEKKYMLPLDNLKIRDVEKGFMSNKHVFAIFNTEQRNVYKDLRQIELACDSQEDVDSWKASFLRAGVYPEKDQAENEDGAQENTFSMDPQLERQVETIRNLVDSYVAIINKSIRDLMPKTIMHLMINNTKAFIHHELLAYLYSSADQSSLMEESADQAQRRDDMLRMYHALKEALNIIGDISTSTVSTPVPPPVDDTWLQSASSHSPTPQRRPVSSIHPPGRPPAVRGPTPGPPLIPVPVGAAASFSAPPIPSRPGPQSVFANSDLFPAPPQIPSRPVRIPPGIPPGVPRRPPAAPSRPTIIRPAEPSLLD”, the “soluble on expression in E. coli” value was “soluble”.

As for “MKAVIVYASVHHGNTKKIAEAMASVISADVIDVTRKIKPDLSGYDVIGFASGVYFHTFHERIKKCIEENLFSKGQKVFLVATCGLGYRDYTKGIKDILAKKHVSFIGNFQCRGWDTYGIFGKIGGIAKKHPNDRDLKEAQQFVLKTVCEKTIDDVALLEHHHHHH”, the “soluble on expression in E. coli” value is “soluble”.

In the case of “MATEPPKIVWNEGKRRFETEDHEAFIEYKMRNNGKVMDLVHTYVPSFKRGLGLASHLCVAAFEHASSHSISIIPSCSYVSDTFLPRNPSWKPLIHSEVFKSSI”, the “soluble on expression in E. coli” value is “soluble”.

Take “MLGRRAVSVHRFLSRAARQSVTAASSAQPSLQAKTSLLEPLVQNVRITSSANFHMSAVRMSDVITVEGPAFAESISEGDIRWLKQKGDHVNEDELVAEIETDKTSVEVPAPQAGTIVEFLVEDGAKVTAKQKLYKLQPGAGGGSSSAPAKEEPKSAPAKEESKPAPAKEDSKPAVTAAAPPKPVSGDIPKSAPPVARPPSTPSSSTPVGAVPVTRVVVPKGVDPSHAITGARDEVRVKANRMRMRIAQRLKDAQNTYAMLTTFNEIDMSSLIEMRKTYQKDFVAKHGVKLGMMSPFVRAAAYALQESPVVNAVLDENEIVYRHFVDISVAVATPKGLVVPVLRNVESMNYAQIELELANLGVKARDGKLAVEDMEGGTFTISNGGVFGSMFGTPIINPPQSAILGMHGVFDRVVPVNGKPEIRPIMQIALTYDHRLIDGREAVTFLKKIKTAVEDPRIMFMNL”: the “soluble on expression in E. coli” value was “not soluble”.

On to “MAHHHHHHMEEQESAENINMIKETIFGLPNSVILKIIHNNINLKNYKIRKEAVTTLGRCLSMFILYITDGALEHCEGEKRNTIFVRDILNSLDDSLFLDIYDELKRQIAIQEEIHKKESAKEAKSAAKGDTPSGADNAQGETNQVNKQDDLDILLQALE”, for which the “soluble on expression in E. coli” value was “soluble”.

Regarding “MGSDKIHHHHHHMYMIKQNFTTKVYPLKQFEGEYSEVAYAGDSQADDVIVFIHGALLTYKIMTMFEPYFRDYKLIFINCPSRGRSSDLDRDTHTLDDYAARIYDVLTQIVKEQQIKELSIVGYSMGGMIATRLLKYNTLPVSHLIYLHSAAKITPDASMLARLFTSESKRAVLKDEIKAVKNLPQYILDKTIYAQKENALDLVQFIAPIKTIITDMIYTINTDYLPDIDEIKQFPKILFMSGKEDQIIPYTDSQATLEKFKALGGETKEVIYPGIGHIDFPSVLETQSDGQTGVVDEIKAWISKK”, the “soluble on expression in E. coli” value is listed as “not soluble”.

“KPTEPHQFAQQVLYDLDQQPRIIAQLSHQQPMLLYFWGTWCRYCQFTSAAVQQLANEKIPILTIALKSGDEQDISNNYLTQQKYTFPTINDPDGNIAKNWTIQATPTIIFIKDGKIVEYTTGLTSYWGLKSRLW”: the “soluble on expression in E. coli” value is recorded as “not soluble”.
